Measurements: the DeepSol protein solubility set

experiment: soluble on expression in E. coli; label from the status in PepcDB or PDB records

Row | Sequence | soluble on expression in E. coli
1 | MNGELYLKKGLLQLNKKLYDEALATLNKVIELDDDLASLTSAKCILGEYYFIHQNYEKSKEFLSWICDRQDELEEEFDDLLSEEINTASVLMELIEKYKL | not soluble
2 | MNAFDRARQSAIAAAREARGTYRNGLVTPTAGVAPGMTQANLIALPRDWAYDFLLYAQRNPKACPILDVSDAGSPTTLLAEGSDLRTDIPMYRIWRDGKLAEEVSDATQAWAEHDDMVAFLIGCSFTFETPLQEAGIEVRHITDGCNVPMYRTNRACRPAGRLHGEMVVSMRPIPADRVAEASAISGRYPSVHGAPVHIGEPGRLGINDLSRPDFGDAVSIKPGEVPVFWACGVTPQAAVMASGVPFAITHSPGYMFITDVPDSTYHVLEHHHHHH | soluble
3 | MGLDDALIFTRVVEYHSFTQAAQSLGMQKSTVSRRIALLEERLGVRLLNRTTRKLRLTEVGQAYYERCRQIMHDFAEAEQAVMQLQQAPSGLLRITSPIEFGQMFLASLLGDFMRQYPQITAEVELASRSVDPLQEGVDIVIMVGQPEDSTLVARRLLSTSRWLCASPDYLAAHGTPTSVAELAGHRAVLLSTDSQRYWPLSGDSLPCQRVLSCNNITFAREAVVAGAGIAALPALICAESVHSGRLVRLLADVPLPVGELYAVYPSRRFQAMKVKAFLDFLISRLPADTGRLLEPEAARLITSRP | not soluble
4 | MSLDTIKVGFNIPLTGDIPKVGESSKFAAEILKGEINAAGGLKVGDKTYQLEFIYEDNESKAESATATALKLITQDGVLAIIGPQSSKQAIPAGQVCNDNKTPMISPWSTNPKTTENRPYVFRACFLDPFQGPVAAKFVTEEFKAKKAAVLYDIASDYPKGLAEFFKDAFEKIHGPGSVVAFETFTTKDKDFSAQLTKIVASGADVLFTPQYYDEVPLIVKQAQELGWKKPIMGSDSWGSAELMKLCGDACKGYCFSTHYAAAGAKGATKEFIDKYNTKYGYVPDDVAALTWDAINLLFTAVKNTGGLSGNLDKDRDAIKDKLTQVKDFEGITGKMTFAPGGNPTKCAVVVKISDKGEFEFFKSEGHHHHHH | soluble
5 | MLDLFADAEPWQEPLAAGAVILRRFAFNAAEQLIRDINDVASQSPFRQMVAPGGYTMSVAMTNCGHLGWTTHRQGYLYSPIDPQTNKPWPAMPQSFHDLCQRAATAAGYPDFQPDACLINRYAPGAKLSLHQDKDEPDLRAPIVSVSLGLPAIFQFGGLKRNDPLKRLLLEHGDVVVWGGESRLFYHGIQPLKAGFHPLTTDCRYNLTFRQAGKKE | not soluble
6 | TTILKHLPVGQRIGIAFSGGLDTSAALLWMRQKGAVPYAYTANLGQPDEEDYDAIPRRAMEYGAENARLIDCRKQLVAEGIAAIQCGAFHNTTGGLTYFNTTPLGRAVTGTMLVAAMKEDGVNIWGDGSTYKGNDIERFYRYGLLTNAELQIYKPWLDTDFIDELGGRHEMSEFMIACGFDYKMSVEKAYSTDSNMLGATHEAKDLEYLNSSVKIVNPIMGVKFWDESVKIPAEEVTVRFEQGHPVALNGKTFSDDVEMMLEANRIGGRHGLGMSDQIENRIIEAKSRGIYEAPGMALLHIAYERLLTGIHNEDTIEQYHAHGRQLGRLLYQGRWFDSQALMLRDSLQRWVASQITGEVTLELRRGNDYSILNTVSENLTYKPERLTMEKGDSVFSPDDRIGQLTMRNLDITDTREKLFGYAKTGLLSSSAASGVPQVENLENKGQSVEHHHHHH | soluble
7 | GSSGSSGMQAGKPILYSYFRSSCSWRVRIALALKGIDYEIVPINLIKDGGQQFTEEFQTLNPMKQVPALKIDGITIVQSLAIMEYLEETRPIPRLLPQDPQKRAIVRMISDLIASGIQPLQNLSVLKQVGQENQMQWAQKVITSGFNALEKILQSTAGKYCVGDEVSMADVCLVPQVANAERFKVDLSPYPTISHINKELLALEVFQVSHPRRQPDTPAELRT | soluble
8 | MNPTVLVAEDDPVQRLLLRRALEPLGVEVRLARHGREALDLALEAPPHLVLTDLHMPHMDGLELTRRLKALDPLLPVLLFTADRDHETRLRGLEAGADDFLNRPFDLTELRLRVKGHLERRRLQEKLEDLERALLALVRAVEAKDPYTAGHAERVARYALLGARELGAGEEELRDLHMGALLHDVGKIGLPDRILRGEAPLSAADWRLIQAHPVKGDEILTPLKAHPRLRPYVRWHHEKLDGSGYPDGLTEIPLLVQVLSAADMYDALTSRRTYREAVKPEEALEALEREAREGRLALEAVRALRSGLRRGASEAKGHVLHL | soluble
